Assay results as given in patent US20120316071A1 (published 2012).

Assays:
[1] = target: T1, rHuman ErbB2/Fc Chimera, CF (R&D Systems Cat#1129-ER) (human, UniProt P04626 23-652); assay: ECL multispot (MSD) binding assay, antigens spotted on plate, 20 nM Fab;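 further: fab incubated 1 h at 20 °C on antigen-spotted wells, bound Fab detected by TAG-labelled antibody, ratio of 4 or more over blank counted as a hit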
T1 construct: Bought recombinant protein; also called human epidermal growth factor 2 receptor; Fc part of the bought chimera not given

[2] = target: T2, rHuman EGF R/Fc Chimera, CF (R&D Systems Cat#344-ER) (human, UniProt P00533 25-645); assay: as above
T2 construct: Bought recombinant protein; also called epidermal growth factor receptor; Fc part of the bought chimera not given

[3] = target: T3, rHuman CD44/Fc Chimera, CF (R&D Systems Cat#3660-CD) (human, UniProt P16070 21-220); assay: as above
T3 construct: Bought recombinant protein; Fc part of the bought chimera not given

[4] = target: T4, rHuman IGF-1 sR, (IGF-1 sR), CF (R&D Systems Cat#391-GR) (human, UniProt P08069 31-932); assay: as above
T4 construct: Bought recombinant soluble receptor; The column head prints only 'IGF-1'; also called insulin-like growth factor-1 soluble receptor

[5] = target: T5, rHuman P-Cadherin/Fc Chimera, CF (R&D Systems Cat#861-PC) (human, UniProt P22223 108-654); assay: as above
T5 construct: Bought recombinant protein; Fc part of the bought chimera not given

[6] = target: T6, Recombinant Human DLL4 (R&D Systems Cat#1506-D4/CF) (human, UniProt Q9NR61 27-524); assay: as above
T6 construct: Bought recombinant protein; also called delta-like protein 4; rHuman DLL4

[7] = target: T7, rHuman Erythropoietin R/Fc Chimera, CF (R&D Systems Cat#963-ER) (human, UniProt P19235 25-250); assay: as above
T7 construct: Bought recombinant protein; also called EPO R; Epo R; Fc part of the bought chimera not given
T7 sequence (looked up): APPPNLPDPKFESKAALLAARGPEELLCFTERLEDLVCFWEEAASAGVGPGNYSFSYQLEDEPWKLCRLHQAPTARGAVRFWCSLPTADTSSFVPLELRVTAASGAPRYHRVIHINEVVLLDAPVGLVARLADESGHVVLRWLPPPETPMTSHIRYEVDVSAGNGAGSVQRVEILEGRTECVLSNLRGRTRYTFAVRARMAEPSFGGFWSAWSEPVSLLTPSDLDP

[8] = target: T8, Recombinant Human DLL4 (delta-like protein 4) (human, UniProt Q9NR61 27-524); assay: ELISA on coated DLL4, Fab at 25 nM (2-fold serial dilution)
T8 construct: also called rHuman DLL4; Delta-like 4

[9] = target: T8, Recombinant Human DLL4 (delta-like …); assay: ELISA on coated DLL4, Fab at 50 nM (2-fold serial dilution)
[10] = target: T8, Recombinant Human DLL4 (delta-like …); assay: ELISA on coated DLL4, Fab at 100 nM (2-fold serial dilution)
[11] = target: T8, Recombinant Human DLL4 (delta-like …); assay: ELISA on coated DLL4, Fab at 12.5 nM (2-fold serial dilution)
[12] = target: T8, Recombinant Human DLL4 (delta-like …); assay: ELISA on coated DLL4, Fab at 6.25 nM (2-fold serial dilution)
[13] = target: T8, Recombinant Human DLL4 (delta-like …); assay: ELISA on coated DLL4, Fab at 3.125 nM (2-fold serial dilution)
[14] = target: T9, Recombinant Human DLL4 (delta-like protein 4) (human, UniProt Q9NR61 27-524); assay: ECL (Meso Scale Discovery) binding assay on immobilised recombinant human DLL4; Fab concentration not given
T9 construct: Bought recombinant protein (R&D Systems Cat#1506-D4/CF); also called rHuman DLL4; Delta-like 4

B1: Fab VH3-23_IGHD2-21*01>3_IGHJ6*01 H100E/S108P/Y113G Y110T & V2-13_IGLJ2*01 (Fab, V domains shown)
VH: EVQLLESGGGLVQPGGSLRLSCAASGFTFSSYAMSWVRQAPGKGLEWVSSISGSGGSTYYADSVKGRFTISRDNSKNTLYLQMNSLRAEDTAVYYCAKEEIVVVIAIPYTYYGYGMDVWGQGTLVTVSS
VL: SSELTQDPAVSVALGQTVRITCQGDSLRSYYASWYQQKPGQAPVLVIYGKNNRPSGIPDRFSGSSSGNTASLTITGAQAEDEADYYCNSRDSSGNHLVVFGGGTKLTVL
notes: Tested as Fab made in E. coli: VH joined to CH1 (His and Flag tags), VL joined to lambda CL; also called EPG Y110T
ECL multispot signal (ratio to blank; column not labelled) [1]: 0.8
ECL multispot signal (ratio to blank; column not labelled) [2]: 1.8
ECL multispot signal (ratio to blank; column not labelled) [3]: 1.6
ECL multispot signal (ratio to blank; column not labelled) [4]: 1.8
ECL multispot signal (ratio to blank; column not labelled) [5]: 1
ECL multispot signal (ratio to blank; column not labelled) [6]: 1.8

B2: Fab VH3-23_IGHD2-21*01>3_IGHJ6*01 H100E/S108P/Y113G Y110W & V2-13_IGLJ2*01 (Fab, V domains shown)
VH: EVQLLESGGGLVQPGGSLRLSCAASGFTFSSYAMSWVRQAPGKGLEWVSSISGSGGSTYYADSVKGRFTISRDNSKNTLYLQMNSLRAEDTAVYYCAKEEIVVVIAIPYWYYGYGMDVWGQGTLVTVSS
VL: SSELTQDPAVSVALGQTVRITCQGDSLRSYYASWYQQKPGQAPVLVIYGKNNRPSGIPDRFSGSSSGNTASLTITGAQAEDEADYYCNSRDSSGNHLVVFGGGTKLTVL
notes: Tested as Fab made in E. coli: VH joined to CH1 (His and Flag tags), VL joined to lambda CL; also called EPG Y110W
ECL multispot signal (ratio to blank; column not labelled) [1]: 16.5
ECL multispot signal (ratio to blank; column not labelled) [2]: 7.6
ECL multispot signal (ratio to blank; column not labelled) [5]: 38.8
ECL multispot signal (ratio to blank; column not labelled) [7]: 117

B3: Fab VH5-51_IGHD5-18*01>3_IGHJ4*01 G100K/G104T S28R & V3-4_IGLJ1*01 (Fab, V domains shown)
VH: EVQLVQSGAEVKKPGESLKISCKGSGYRFTSYWIGWVRQMPGKGLEWMGIIYPGDSDTRYSPSFQGQVTISADKSISTAYLQWSSLKASDTAMYYCARRKYSYTYDYFDYWGQGTLVTVSS
VL: QTVVTQEPSFSVSPGGTVTLTCGLSSGSVSTSYYPSWYQQTPGQAPRTLIYSTNTRSSGVPDRFSGSILGNKAALTITGAQADDESDYYCVLYMGSGISYVFGTGTKVTVL
notes: Fab; also called H:KT S28R & L:parent; H:KT S28R & L:wt
ELISA signal [8]: 0.365
ELISA signal [9]: 0.456
ELISA signal [10]: 0.529
ELISA signal [11]: 0.309
ELISA signal [12]: 0.303
ELISA signal [13]: 0.246

B4: Fab VH5-51_IGHD5-18*01>3_IGHJ4*01 G100K/G104T (H:KT) & V3-4_IGLJ1*01 G23A, N175K (Fab, V domains shown)
VH: EVQLVQSGAEVKKPGESLKISCKGSGYSFTSYWIGWVRQMPGKGLEWMGIIYPGDSDTRYSPSFQGQVTISADKSISTAYLQWSSLKASDTAMYYCARRKYSYTYDYFDYWGQGTLVTVSS
VL: QTVVTQEPSFSVSPGGTVTLTCALSSGSVSTSYYPSWYQQTPGQAPRTLIYSTNTRSSGVPDRFSGSILGNKAALTITGAQADDESDYYCVLYMGSGISYVFGTGTKVTVLG
notes: also called G100K/G104T & G23A/N175K
ECL signal [14]: 17800

B5: Fab VH5-51_IGHD5-18*01>3_IGHJ4*01 G100K/G104T (H:KT) & V3-4_IGLJ1*01 (Fab, V domains shown)
VH: EVQLVQSGAEVKKPGESLKISCKGSGYSFTSYWIGWVRQMPGKGLEWMGIIYPGDSDTRYSPSFQGQVTISADKSISTAYLQWSSLKASDTAMYYCARRKYSYTYDYFDYWGQGTLVTVSS
VL: QTVVTQEPSFSVSPGGTVTLTCGLSSGSVSTSYYPSWYQQTPGQAPRTLIYSTNTRSSGVPDRFSGSILGNKAALTITGAQADDESDYYCVLYMGSGISYVFGTGTKVTVL
notes: Tested as Fab made in E. coli: VH joined to CH1 (Plasmid A, His and Flag tags), VL joined to lambda CL (Plasmid E); also called H:KT & L:wt; KT double mutant
ECL signal [14]: 9360

B6: Fab VH5-51_IGHD5-18*01>3_IGHJ4*01 G100K/G104T (H:KT) & V3-4_IGLJ1*01 T78K (Fab, V domains shown)
VH: EVQLVQSGAEVKKPGESLKISCKGSGYSFTSYWIGWVRQMPGKGLEWMGIIYPGDSDTRYSPSFQGQVTISADKSISTAYLQWSSLKASDTAMYYCARRKYSYTYDYFDYWGQGTLVTVSS
VL: QTVVTQEPSFSVSPGGTVTLTCGLSSGSVSTSYYPSWYQQTPGQAPRTLIYSTNTRSSGVPDRFSGSILGNKAALTIKGAQADDESDYYCVLYMGSGISYVFGTGTKVTVL
notes: Fab with CH1 and lambda CL from the expression plasmids; also called G100K/G104T & T78K
ECL signal [14]: 9620

B7: Fab VH5-51_IGHD5-18*01>3_IGHJ4*01 G100K/G104T (H:KT) & V3-4_IGLJ1*01 T78L (Fab, V domains shown)
VH: EVQLVQSGAEVKKPGESLKISCKGSGYSFTSYWIGWVRQMPGKGLEWMGIIYPGDSDTRYSPSFQGQVTISADKSISTAYLQWSSLKASDTAMYYCARRKYSYTYDYFDYWGQGTLVTVSS
VL: QTVVTQEPSFSVSPGGTVTLTCGLSSGSVSTSYYPSWYQQTPGQAPRTLIYSTNTRSSGVPDRFSGSILGNKAALTILGAQADDESDYYCVLYMGSGISYVFGTGTKVTVL
notes: Fab with CH1 and lambda CL from the expression plasmids; also called G100K/G104T & T78L
ECL signal [14]: 9550

B8: Fab VH5-51_IGHD5-18*01>3_IGHJ4*01 G100K/G104T (H:KT) & V3-4_IGLJ1*01 T78E (Fab, V domains shown)
VH: EVQLVQSGAEVKKPGESLKISCKGSGYSFTSYWIGWVRQMPGKGLEWMGIIYPGDSDTRYSPSFQGQVTISADKSISTAYLQWSSLKASDTAMYYCARRKYSYTYDYFDYWGQGTLVTVSS
VL: QTVVTQEPSFSVSPGGTVTLTCGLSSGSVSTSYYPSWYQQTPGQAPRTLIYSTNTRSSGVPDRFSGSILGNKAALTIEGAQADDESDYYCVLYMGSGISYVFGTGTKVTVL
notes: Fab with CH1 and lambda CL from the expression plasmids; also called G100K/G104T & T78E
ECL signal [14]: 10600

B9: Fab VH5-51_IGHD5-18*01>3_IGHJ4*01 G100K/G104T (H:KT) & V3-4_IGLJ1*01 T78V (Fab, V domains shown)
VH: EVQLVQSGAEVKKPGESLKISCKGSGYSFTSYWIGWVRQMPGKGLEWMGIIYPGDSDTRYSPSFQGQVTISADKSISTAYLQWSSLKASDTAMYYCARRKYSYTYDYFDYWGQGTLVTVSS
VL: QTVVTQEPSFSVSPGGTVTLTCGLSSGSVSTSYYPSWYQQTPGQAPRTLIYSTNTRSSGVPDRFSGSILGNKAALTIVGAQADDESDYYCVLYMGSGISYVFGTGTKVTVL
notes: Fab with CH1 and lambda CL from the expression plasmids; also called G100K/G104T & T78V
ECL signal [14]: 9830

B10: Fab VH5-51_IGHD5-18*01>3_IGHJ4*01 G100K/G104T (H:KT) & V3-4_IGLJ1*01 S25A, A116T (Fab, V domains shown)
VH: EVQLVQSGAEVKKPGESLKISCKGSGYSFTSYWIGWVRQMPGKGLEWMGIIYPGDSDTRYSPSFQGQVTISADKSISTAYLQWSSLKASDTAMYYCARRKYSYTYDYFDYWGQGTLVTVSS
VL: QTVVTQEPSFSVSPGGTVTLTCGLASGSVSTSYYPSWYQQTPGQAPRTLIYSTNTRSSGVPDRFSGSILGNKAALTITGAQADDESDYYCVLYMGSGISYVFGTGTKVTVLG
notes: also called G100K/G104T & S25A/A116T; named S52A/A116T in the running text
ECL signal [14]: 12200

B11: Fab VH5-51_IGHD5-18*01>3_IGHJ4*01 G100K/G104T T58A & V3-4_IGLJ1*01 (Fab, V domains shown)
VH: EVQLVQSGAEVKKPGESLKISCKGSGYSFTSYWIGWVRQMPGKGLEWMGIIYPGDSDARYSPSFQGQVTISADKSISTAYLQWSSLKASDTAMYYCARRKYSYTYDYFDYWGQGTLVTVSS
VL: QTVVTQEPSFSVSPGGTVTLTCGLSSGSVSTSYYPSWYQQTPGQAPRTLIYSTNTRSSGVPDRFSGSILGNKAALTITGAQADDESDYYCVLYMGSGISYVFGTGTKVTVL
notes: Fab; also called H:KT T58A & L:parent
ELISA signal [8]: 0.22
ELISA signal [9]: 0.209
ELISA signal [10]: 0.253
ELISA signal [11]: 0.23
ELISA signal [12]: 0.249
ELISA signal [13]: 0.244

B12: Fab VH5-51_IGHD5-18*01>3_IGHJ4*01 G100K/G104T T58D & V3-4_IGLJ1*01 (Fab, V domains shown)
VH: EVQLVQSGAEVKKPGESLKISCKGSGYSFTSYWIGWVRQMPGKGLEWMGIIYPGDSDDRYSPSFQGQVTISADKSISTAYLQWSSLKASDTAMYYCARRKYSYTYDYFDYWGQGTLVTVSS
VL: QTVVTQEPSFSVSPGGTVTLTCGLSSGSVSTSYYPSWYQQTPGQAPRTLIYSTNTRSSGVPDRFSGSILGNKAALTITGAQADDESDYYCVLYMGSGISYVFGTGTKVTVL
notes: Fab; also called H:KT T58D & L:parent
ELISA signal [8]: 0.218
ELISA signal [9]: 0.23
ELISA signal [10]: 0.219
ELISA signal [11]: 0.223
ELISA signal [12]: 0.224
ELISA signal [13]: 0.252

B13: Fab VH5-51_IGHD5-18*01>3_IGHJ4*01 G100K/G104T (H:KT) & V3-4_IGLJ1*01 T78S (Fab, V domains shown)
VH: EVQLVQSGAEVKKPGESLKISCKGSGYSFTSYWIGWVRQMPGKGLEWMGIIYPGDSDTRYSPSFQGQVTISADKSISTAYLQWSSLKASDTAMYYCARRKYSYTYDYFDYWGQGTLVTVSS
VL: QTVVTQEPSFSVSPGGTVTLTCGLSSGSVSTSYYPSWYQQTPGQAPRTLIYSTNTRSSGVPDRFSGSILGNKAALTISGAQADDESDYYCVLYMGSGISYVFGTGTKVTVL
notes: Fab with CH1 and lambda CL from the expression plasmids; also called G100K/G104T & T78S
ECL signal [14]: 7550
